From patent US6395275 (Scripps Research, dated 2002)
Positions count from the first letter of the chain named. Where two headings read alike, the source gives them in different places.

Tests used:
[1] = target: gp120 glycoprotein of HIV-1 strain MN (HIV-1 strain MN, UniProt P05877 32-513, limits assumed); assay: cell-based or functional assay
[2] = target: T1, recombinant gp120 of HIV-1 strain IIIb (HIV-1 strain IIIb, UniProt P04578 33-511); assay: cell-based or functional assay
[3] = target: T1, recombinant gp120 of HIV-1 strain IIIb; assay: SPR BIAcore, gp120 on chip
From the text: In the assay, the gp120 glycoprotein, isolated from both MN (AgMed, Cambridge, Mass.) and IIIb (American Bio-Technologies) strains of HIV-1 were coated onto gold chips. […] As the mass of the gold chips increases due to the binding of the Fabs to the ligand, the refractive index of the chips increases indicating a coordinate increase in the increase of the mass. Measurements of the "on" rate are made in addition to the "off" rates, the latter of which occurs as the Fabs begin to dissociate from the ligand and the mass coordinately decreases, thereby allowing a measurement of the change of the refractive index. Briefly, the sensor chip was activated for immobilization with N-hydroxysuccinimide an N-ethyl-N'-(3-diethyl aminopropyl) carbodiimide. The proteins, MN-derived or IIIb-derived gp120, were coupled to the surface by injection of 50 ul of a 50 ug/ml sample. Excess activated esters were quenched with 15 ul ethanolamine, 1 M pH 8.5. Typically, 4000 resonance units were immobilized. Binding of Fab fragments to immobilized gp120 was studied by injection of Fab in a range of concentrations (0.5 to 10 ug/ml) at a flow rate of 5 ul/minute. The association was monitored as the increase in resonance units per unit time. Dissociation measurements were acquired following the end of the association phase but with a flow rate of 50 ul/minute. […]

[4] = target: T1, recombinant gp120 of HIV-1 strain IIIb; assay: SPR BIAcore, gp120 on chip; remark: listed apart in the source
[5] = target: T1, recombinant gp120 of HIV-1 strain IIIb; assay: calculated as ln2/Koff from SPR
Method: (§1) The soluble composite Fabs were then analyzed for binding affinity to gp120 strain IIIB.
In addition, the half-life of the binding of the gp120-reactive Fabs to gp120 can be obtained by dividing the natural log ($\ln_2$) with the $Koff$ rate constant, thereby obtaining a further parameter of the nature of the interaction.

[6] = target: T1, recombinant gp120 of HIV-1 strain IIIb; assay: SPR BIAcore, gp120 on chip (summary table)
[7] = target: T1, recombinant gp120 of HIV-1 strain IIIb; assay: SPR BIAcore, gp120 on chip; remark: listed apart in the source
From the text: (§2) As the mass of the gold chips increases due to the binding of the Fabs to the ligand, the refractive index of the chips increases indicating a coordinate increase in the increase of the mass. Measurements of the "on" rate are made in addition to the "off" rates, the latter of which occurs as the Fabs begin to dissociate from the ligand and the mass coordinately decreases, thereby allowing a measurement of the change of the refractive index. Briefly, the sensor chip was activated for immobilization with N-hydroxysuccinimide an N-ethyl-N'-(3-diethyl aminopropyl) carbodiimide. The proteins, MN-derived or IIIb-derived gp120, were coupled to the surface by injection of 50 ul of a 50 ug/ml sample. Excess activated esters were quenched with 15 ul ethanolamine, 1 M pH 8.5. Typically, 4000 resonance units were immobilized. Binding of Fab fragments to immobilized gp120 was studied by injection of Fab in a range of concentrations (0.5 to 10 ug/ml) at a flow rate of 5 ul/minute. The association was monitored as the increase in resonance units per unit time. Dissociation measurements were acquired following the end of the association phase but with a flow rate of 50 ul/minute. The binding surface was regenerated with HCl, 1M NaCl, pH 3 and remained active for 20–40 measurements. […] Equilibrium association and dissociation constants were deduced from the rate constants.
as §1

[8] = target: T1, recombinant gp120 of HIV-1 strain IIIb; assay: SPR BIAcore, gp120 on chip; remark: listed apart in the source
[9] = target: T1, recombinant gp120 of HIV-1 strain IIIb; assay: SPR BIAcore, gp120 on chip; remark: listed apart in the source
From the text: as §2

[10] = target: T1, recombinant gp120 of HIV-1 strain IIIb; assay: SPR BIAcore, gp120 on chip; remark: listed apart in the source
Method: Briefly, the sensor chip was activated for immobilization with N-hydroxysuccinimide an N-ethyl-N'-(3-diethyl aminopropyl) carbodiimide. The proteins, MN-derived or IIIb-derived gp120, were coupled to the surface by injection of 50 ul of a 50 ug/ml sample. Excess activated esters were quenched with 15 ul ethanolamine, 1 M pH 8.5. Typically, 4000 resonance units were immobilized. Binding of Fab fragments to immobilized gp120 was studied by injection of Fab in a range of concentrations (0.5 to 10 ug/ml) at a flow rate of 5 ul/minute. The association was monitored as the increase in resonance units per unit time. Dissociation measurements were acquired following the end of the association phase but with a flow rate of 50 ul/minute. The binding surface was regenerated with HCl, 1M NaCl, pH 3 and remained active for 20–40 measurements. […] Equilibrium association and dissociation constants were deduced from the rate constants.

B1: Fab 3b3 (Fab, V domains shown)
VH: LEQSGAEVKKPGASVKVSCQASGYRFSNFTVHWVRQAPGQRFEWMGWINPYNGNKEFSAKFQDRVTFTADTSANTAYMELRSLRSADTAVYYCARVGEWGWDDSPQDNYYMDVWGKGTTVIVSS
VL: ELTQSPGTLSLSPGERATFSCRSSHSIRSRRVAWYQHKPGQAPRLVIHGVSNRASGISDRFSGSGSGTDFTLTITRVEPEDFALYYCQVYGASSYTFGQGTKLERKR
[1]
  IC50 (M^-1), syncytium neutralization assay, HIV-1 MN on CEM-SS cells: 9.02e+09 M⁻¹
  Neutralization Titer (ng/ml), syncytium assay, HIV-1 MN: 5.5 ng/mL
[2]
  IC50 (M), syncytium neutralization assay, HIV-1 IIIb: 9.4e-10 M
  Neutralization titer (ng/ml), syncytium assay, HIV-1 IIIb: 47 ng/mL
[3]
  Kd: 0.77 nM
[4]
  Ka: 1.3e+09 M⁻¹

B2: composite Fab H31/L42-1 (Fab, V domains shown)
VH: B1 VH with N28H, M45H, D102E, D103M, S104F, P105R, Q106Y
VL: B1 VL with S26Q, I27L, R28D, S29G, R30S, V89Q, A92W, S93P, S94F
notes: also called Fab of plasmid pPho-H31/L42-1 (ATCC 69691)
[5]
  half-life of binding: 44.5 days
[6]
  Kd: 0.00259 nM
[7]
  Fold Increase of Mutant Kd Compared to MT4 Kd: 2430 fold
  Ka: 3.85e+11 M⁻¹
  Kd: 0.00259 nM
[8]
  koff: 1.75e-07 s⁻¹
  kon: 67300 M⁻¹ s⁻¹

B3: Fab H4L3-3 (Fab, V domains shown)
VH: B1 VH
VL: ELTQSPGTLSLSPGERATFSCRSSHSIRSRRVAWYQHKPGQAPRLVIHGVSNRASGISDRFSGSGSGTDFTLTITRVEPEDFALYYCQVYGGSAYTFGQGTKLERK
[9]
  Fold Increase of Mutant Kd Compared to MT4 Kd: 1.9 fold
  Kd: 3.31 nM

B4: Fab H4L3-2 (Fab, V domains shown)
VH: B1 VH
VL: B1 VL with V89Q, A92W, S93P, S94F
[9]
  Fold Increase of Mutant Kd Compared to MT4 Kd: 45.3 fold
  Kd: 0.138 nM
[6]
  Kd: 0.138 nM

B5: Fab H4H1-1 (Fab, V domains shown)
VH: B1 VH with N28H, E98P, W99Y, G100S
VL: B1 VL
[10]
  Fold Increase of Mutant Kd Compared to MT4 Kd: 3.7 fold
  Kd: 1.7 nM

B6: Fab H4L3-4 (Fab, V domains shown)
VH: B1 VH
VL: B1 VL with V89K, A92G, S93G, S94T
[9]
  Fold Increase of Mutant Kd Compared to MT4 Kd: 25.7 fold
  Kd: 0.243 nM
[6]
  Kd: 0.243 nM

B7: Fab H4H1-5 (Fab, V domains shown)
VH: B1 VH with N28H, V31I, H32M, E98P, W99Y, G100S
VL: B1 VL
[10]
  Fold Increase of Mutant Kd Compared to MT4 Kd: 2.57 fold
  Kd: 2.45 nM

B8: Fab H4H1-3 (Fab, V domains shown)
VH: B1 VH with N28H, V31L, E98P, W99Y, G100S
VL: B1 VL
[10]
  Fold Increase of Mutant Kd Compared to MT4 Kd: 3.15 fold
  Kd: 2 nM

B9: Fab 3b1 (Fab, V domains shown)
VH: B1 VH with V31L, H32M, E98Q, G100N
VL: B1 VL
[1]
  IC50 (M^-1), syncytium neutralization assay, HIV-1 MN on CEM-SS cells: 5.42e+09 M⁻¹
  Neutralization Titer (ng/ml), syncytium assay, HIV-1 MN: 9.2 ng/mL
[2]
  IC50 (M), syncytium neutralization assay, HIV-1 IIIb: 4.4e-10 M
  Neutralization titer (ng/ml), syncytium assay, HIV-1 IIIb: 22 ng/mL
